From patent US20190359686A1 (INNOVATIVE TECHNOLOGIES IN BIOLOGICAL SYSTEMS SL, published 2019)
Where no end group is shown, it is not given here.

Target: T1, F2R like trypsin receptor 1 (PAR2) (UniProt P55085 37-397)
T1 sequence (looked up): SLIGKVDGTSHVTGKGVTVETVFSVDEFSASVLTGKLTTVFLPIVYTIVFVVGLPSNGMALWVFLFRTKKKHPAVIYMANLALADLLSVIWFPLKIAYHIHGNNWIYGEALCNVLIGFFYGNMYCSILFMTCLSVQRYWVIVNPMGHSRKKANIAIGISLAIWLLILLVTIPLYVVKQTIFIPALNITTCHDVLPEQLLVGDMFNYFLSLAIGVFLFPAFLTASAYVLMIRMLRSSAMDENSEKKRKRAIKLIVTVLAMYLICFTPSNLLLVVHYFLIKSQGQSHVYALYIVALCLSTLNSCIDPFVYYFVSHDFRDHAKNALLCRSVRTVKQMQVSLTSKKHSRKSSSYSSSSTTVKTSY
Test: cell-based or functional assay

## SLIGKV
  EC50 SLIGKV calcium assay: 1.67 µM
  EC50 SLIGKV ß-Arrestin assay: 4.83 µM

## SLIGRL-NH2 [SLIGRL-NH2]
  EC50 SLIGRL-NH2 calcium assay: 4.06 µM
  EC50 SLIGRL-NH2 ß-Arrestin assay: 12.7 µM
